Experimental data as given in US20090312236A1.

Biological target: human IGF-1 receptor (human) (UniProt P08069)
Experiment: competitive radioligand SPA, [125I]IGF-1, hIGF-1R membranes

- Ki: > 75 nM
Substance: insulin lispro (ligand; other documents disagree on this pair)
